Laboratory results reported in patent US5591427A, “Human Interleukin-3(Il-3) variants and their use to promote or antagonize IL-3-mediated processes” (Medvet Science Pty. Ltd., priority 1979, dated 1997).

Assays:
[1] = molecular target: T1, IL-3R α chain and β chain (Homo sapiens, UniProt P26951+P32927); assay: Competition for 125I-IL-3 binding to reconstituted IL-3 high affinity receptor (α and β chains) in COS cells
T1 construct: amplify the complete coding region of the IL-3R alpha chain; also to amplify the coding region of the IL-3R α chain; expressed in transfected cells; host or cells: COS cells (pCDM8 vector, electroporation)
T1 sequence (P26951 19-378): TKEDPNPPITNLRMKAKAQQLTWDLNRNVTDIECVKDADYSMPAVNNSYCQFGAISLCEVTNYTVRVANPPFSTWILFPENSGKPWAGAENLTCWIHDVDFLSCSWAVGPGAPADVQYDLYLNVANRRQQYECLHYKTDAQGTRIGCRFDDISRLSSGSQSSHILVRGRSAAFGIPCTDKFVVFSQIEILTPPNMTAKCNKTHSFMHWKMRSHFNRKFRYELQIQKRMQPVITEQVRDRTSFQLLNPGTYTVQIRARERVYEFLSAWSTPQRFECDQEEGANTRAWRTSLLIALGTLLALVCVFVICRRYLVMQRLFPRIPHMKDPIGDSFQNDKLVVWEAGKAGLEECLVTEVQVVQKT
T1 sequence (P32927 17-897): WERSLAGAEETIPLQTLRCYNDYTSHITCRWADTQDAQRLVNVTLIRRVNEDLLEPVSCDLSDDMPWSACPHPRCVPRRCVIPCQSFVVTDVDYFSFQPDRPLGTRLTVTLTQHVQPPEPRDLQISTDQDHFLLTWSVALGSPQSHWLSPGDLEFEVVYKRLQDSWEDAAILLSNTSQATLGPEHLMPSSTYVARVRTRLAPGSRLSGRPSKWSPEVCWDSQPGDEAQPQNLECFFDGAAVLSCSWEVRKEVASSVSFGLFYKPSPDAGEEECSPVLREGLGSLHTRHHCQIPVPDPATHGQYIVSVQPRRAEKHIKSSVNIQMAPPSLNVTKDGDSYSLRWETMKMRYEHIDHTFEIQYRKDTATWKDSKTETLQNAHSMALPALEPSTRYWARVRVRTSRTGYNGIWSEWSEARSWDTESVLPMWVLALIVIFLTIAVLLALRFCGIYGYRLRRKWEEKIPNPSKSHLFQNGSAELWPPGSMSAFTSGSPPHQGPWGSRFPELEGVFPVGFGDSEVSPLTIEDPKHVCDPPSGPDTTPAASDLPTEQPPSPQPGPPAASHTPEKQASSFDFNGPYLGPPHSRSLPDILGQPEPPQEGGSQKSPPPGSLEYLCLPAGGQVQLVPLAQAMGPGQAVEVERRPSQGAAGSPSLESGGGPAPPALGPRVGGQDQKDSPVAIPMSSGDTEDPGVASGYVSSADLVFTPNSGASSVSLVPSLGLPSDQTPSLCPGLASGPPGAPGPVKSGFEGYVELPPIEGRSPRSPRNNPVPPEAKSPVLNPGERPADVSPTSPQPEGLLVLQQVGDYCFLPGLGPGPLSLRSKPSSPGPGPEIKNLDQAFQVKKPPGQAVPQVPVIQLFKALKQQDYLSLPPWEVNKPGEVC
Excerpt: PolyA+ RNA was isolated from the human cord blood cell line KMT2. Oligo dT primed double stranded cDNA was synthesised and used as template for PCR amplification. The PCR primers were designed to amplify the complete coding region of the IL-3R alpha chain and also to amplify the coding region of the […]. The PCR products were cloned into the vector pGEM-2 for sequence verification, and then into the eukaryotic expression vector, pCDM8. The […]-containing plasmid was transfected into COS cells by electroporation, either on its own or in conjunction with the […], and after two days the cells were used for binding studies.

basophils = assay: Histamine release assay with basophils; assay type: cell-based, human; conditions: FIG. 4
Procedure: This was carried out as previously described (Lopez et. al., 1990, J. Cell. Physiol., 145, 69-77). Briefly, basophils were obtained from the peripheral blood of normal individuals after dextran sedimentation and centrifugation over Lymphoprep. The percentage of basophils in these preparations varied between 0.2% and 10%. In 300 μl 2×10^4 cells were incubated with 2 μg/ml of purified human IgE. IgE-sensitisedcells were mixed with a goat IgG antihuman IgE (Cappel 0101-0061) and rhIL-3, in a final volume of 500 μl. After incubation for 60 min at 37° C., the cells were centrifuged and 350 μl aliquots removed and stored at -20° C. before assaying for histamine content. Histamine was assayed using a radioertzymatic method essentially as described (Shaff and Beavan, 1979, Anal. Biochem., 94, 425-430). Briefly, samples of 30 μl were diluted with an equal volume of water and mixed with a 30 μl solution comprising 27.5 μl 0.1 M sodium phosphate, pH 7.9, 1.5 μl rat kidney histamine-N-methyltransferase, and 1.0 μl (0.5 μCi)^3 H-methyl-S-adensoyl-L-methionine (Dupont Net 155, low SA). Tritium-labelled methyl-histamine was extracted into chloroform/ether, dried, and counted by scintillation spectrophotometry. […] as nanograms of histamine per milliliter by extrapolation to a standard curve constructed with 10, 5 and 1 ng/ml of histamine (SIGMA).

[2] = test system: bone marrow progenitor cells; assay: Colony assay: clonal proliferation and differentiation of bone marrow progenitor cells in semi-solid agar; assay type: cell-based
Procedure: (a) Colony assay: this assay measured the clonal proliferation and differentiation of bone marrow progenitor cells in semi-solid agar and was carried out as described (Lopez et. al., 1985, Blood 72, 1797-1804). Briefly, low density, macrophage-depleted bone marrow cells were cultured at a concentration of 0.5 to 1×10^5 /mL in Iscove's modified Dulbecco's medium (IMDM, GIBCI, Grant Island, N.Y.), containing 0.33% agar (Difco, Detroit), 25% FCS (Commonwealth Serum Laboratories, Parkville, Victoria, Australia), and 20 μmol/LK2-mercaptoethanol. Different dilutions of IL-3- containing COS cell supernatants were added to each plate. Plates were prepared in triplicate and scored after incubation at 37° C. in 5% CO2 in a humid atmosphere for 14 days. Clones containing 40 cells were scored as colonies.

fold higher affinity than wild type IL-3 ([1]; COS cells transfected with IL-3R α chain and β chain cDNAs, E. coli produced protein): 15 fold | binding to cotransfected α and β chains ([1]; FIG. 7): higher affinity
B1: M37: human IL-3 mutant, Asp 101 replaced by Ala and Lys 116 by Val (protein, UniProt P08700 20-152, looked up, variant D101A K116V)
Interleukin-3: APMTQTTPLKTSWVNCSNMIDEIITHLKQPPLPLLDFNNLNGEDQDILMENNLRRPNLEAFNRAVKSLQNASAIESILKNLLPCLPLATAAPTRHPIHIKAGDWNEFRRKLTFYLVTLENAQAQQTTLSLAIF
histamine release from basophils (basophils): increased histamine release | number of day 14 colonies [2]: increase in the number of day 14 colonies | Relative biological activity, PROLIFERATION COLONIES ([2]; concentration of IL-3 mutant giving 50% of biological activity compared to that of wild type IL-3, mean ± SD): 1700
